These results are taken from the supplement of paper PMC5998384.

The subject of data set [1] is HeLa Kyoto. The data set is described as follows: solubility in G1/S (NP-40 vs SDS abundance) (log2 ratio); higher = more soluble. To be noted: cell cycle stage: G1/S.
For data set [2], the system named is HeLa Kyoto. The experiment in a line: melting temperature (median over replicates), in situ; higher = more thermally stable.
In data set [3] the test system is HeLa Kyoto. The data set is described as follows: solubility change mitosis vs G1/S (difference of NP-40 vs SDS log2 ratios) (log2 ratio difference); higher = more soluble in mitosis.
Data set [4] concerns HeLa Kyoto. The data set is described as follows: thermal stability score vs G1/S (z-score of summed log2 fold changes over temperatures); higher = more thermally stable than in G1/S.
[5] abbreviates: cell cycle stage: early G1 (4.5 h after nocodazole release).
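Wherever melting temperature (median over replicates), in situ is given: HeLa Kyoto cells synchronized by double thymidine or nocodazole block, proteins quantified by TMT10plex mass spectrometry, three independent biological replicates.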
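Wherever solubility change mitosis vs G1/S (difference of NP-40 vs SDS log2 ratios) is given: synchronized HeLa Kyoto cells (double thymidine block for G1/S, nocodazole release for mitosis), protein amounts in NP-40 versus SDS lysates quantified by mass spectrometry, three biological replicates.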
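Wherever solubility in G1/S (NP-40 vs SDS abundance) is given: HeLa Kyoto cells arrested at G1/S by double thymidine block, proteins quantified by TMT10plex mass spectrometry in mild NP-40 versus SDS extracts, three biological replicates.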
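Wherever thermal stability score vs G1/S (z-score of summed log2 fold changes over temperatures) is given: synchronized HeLa Kyoto cells, proteins quantified by TMT10plex mass spectrometry, three biological replicates, mitosis taken 0.5 h after nocodazole release, G1/S directly after double thymidine block.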

Consider “MMRFMLLFSRQGKLRLQKWYLATSDKERKKMVRELMQVVLARKPKMCSFLEWRDLKVVYKRYASLYFCCAIEGQDNELITLELIHRYVELLDKYFGSVCELDIIFNFEKAYFILDEFLMGGDVQDTSKKSVLKAIEQADLLQEEDESPRSVLEEMGLA [AP1S1]”, for which the “solubility in G1/S (log2)” value in the data set on HeLa Kyoto [1] was -0.154. In the data set on HeLa Kyoto [2] (cell cycle stage: G1/S), this sequence yielded a melting temperature of 53 °C. Also, in the data set on HeLa Kyoto [3], the “solubility change mitosis (log2)” value is -0.0672. Besides, the thermal stability score was -1.3 in the data set with HeLa Kyoto [4] (setting [5]) and -0.738 in the data set on HeLa Kyoto [4] (cell cycle stage: mitosis).

Consider “MMSDEKNLGVSQKLVSPSRSTSSCSSKQGSRQDSWEVVEGLRGEMNYTQEPPVQKGFLLKKRKWPLKGWHKRFFYLDKGILKYAKSQTDIEREKLHGCIDVGLSVMSVKKSSKCIDLDTEEHIYHLKVKSEEVFDEWVSKLRHHRMYRQNEIAMFPHEVNHFFSGSTITDSSSGVFDSISSRKRSSISKQNLFQTGSNVSFSCGGETRVPLWLQSSEDMEKCSKDLAHCHAYLVEMSQLLQSMDVLHRTYSAPAINAIQGGSFESPKKEKRSHRRWRSRAIGKDAKGTLQVPKPFSGPVRLHSSNPNLSTLDFGEEKNYSDGSETSSEFSKMQEDLCHIAHKVYFTLRSAFNIMSAEREKLKQLMEQDASSSPSAQVIGLKNALSSALAQNTDLKERLRRIHAESLLLDSPAVAKSGDNLAEENSRDENRALVHQLSNESRLSITDSLSEFFDAQEVLLSPSSSENEISDDDSYVSDISDNLSLDNLSNDLDNERQTLGPVLDSGREAKSRRRTCLPAPCPSSSNISLWNILRNNIGKDLSKVAMPVELNEPLNTLQRLCEELEYSELLDKAAQIPSPLERMVYVAAFAISAYASSYYRAGSKPFNPVLGETYECIREDKGFQFFSEQVSHHPPISACHAESRNFVFWQDVRWKNKFWGKSMEIVPIGTTHVTLPVFGDHFEWNKVTSCIHNILSGQRWIEHYGEIVIKNLHDDSCYCKVNFIKAKYWSTNAHEIEGTVFDRSGKAVHRLFGKWHESIYCGGGSSSACVWRANPMPKGYEQYYSFTQFALELNEMDPSSKSLLPPTDTRFRPDQRFLEEGNLEEAEIQKQRIEQLQRERRRVLEENHVEHQPRFFRKSDDDSWVSNGTYLELRKDLGFSKLDHPVLW [OSBPL3]”, for which, in the data set with HeLa Kyoto [1], the “solubility in G1/S (log2)” value is -0.196. Also, the melting temperature in the data set with HeLa Kyoto [2] (cell cycle stage: G1/S) is 48.8 °C; with HeLa Kyoto [2] (cell cycle stage: mitosis) it was 48.7 °C. Besides, in the data set with HeLa Kyoto [3], the “solubility change mitosis (log2)” value is -0.0655. For the same sequence, the thermal stability score with HeLa Kyoto [4] (setting [5]) came out at 0.31; in the data set with HeLa Kyoto [4] (cell cycle stage: mitosis), 0.491.

Take “MMSLSVRPQRRLLSARVNRSQSFAGVLGSHERGPSLSFRSFPVFSPPGPPRKPPALSRVSRMFSVAHPAAKVPQPERLDLVYTALKRGLTAYLEVHQQEQEKLQGQIRESKRNSRLGFLYDLDKQVKSIERFLRRLEFHASKIDELYEAYCVQRRLRDGAYNMVRAYTTGSPGSREARDSLAEATRGHREYTESMCLLESELEAQLGEFHLRMKGLAGFARLCVGDQYEICMKYGRQRWKLRGRIEGSGKQVWDSEETIFLPLLTEFLSIKVTELKGLANHVVVGSVSCETKDLFAALPQVVAVDINDLGTIKLSLEVTWSPFDKDDQPSAASSVNKASTVTKRFSTYSQSPPDTPSLREQAFYNMLRRQEELENGTAWSLSSESSDDSSSPQLSGTARHSPAPRPLVQQPEPLPIQVAFRRPETPSSGPLDEEGAVAPVLANGHAPYSRTLSHISEASVDAALAEASVEAVGPESLAWGPSPPTHPAPTHGEHPSPVPPALDPGHSATSSTLGTTGSVPTSTDPAPSAHLDSVHKSTDSGPSELPGPTHTTTGSTYSAITTTHSAPSPLTHTTTGSTHKPIISTLTTTGPTLNIIGPVQTTTSPTHTMPSPTHTTASPTHTSTSPTHTPTSPTHKTSMSPPTTTSPTPSGMGLVQTATSPTHPTTSPTHPTTSPILINVSPSTSLELATLSSPSKHSDPTLPGTDSLPCSPPVSNSYTQADPMAPRTPHPSPAHSSRKPLTSPAPDPSESTVQSLSPTPSPPTPAPQHSDLCLAMAVQTPVPTAAGGSGDRSLEEALGALMAALDDYRGQFPELQGLEQEVTRLESLLMQRQGLTRSRASSLSITVEHALESFSFLNEDEDEDNDVPGDRPPSSPEAGAEDSIDSPSARPLSTGCPALDAALVRHLYHCSRLLLKLGTFGPLRCQEAWALERLLREARVLEAVCEFSRRWEIPASSAQEVVQFSASRPGFLTFWDQCTERLSCFLCPVERVLLTFCNQYGARLSLRQPGLAEAVCVKFLEDALGQKLPRRPQPGPGEQLTVFQFWSFVETLDSPTMEAYVTETAEEVLLVRNLNSDDQAVVLKALRLAPEGRLRRDGLRALSSLLVHGNNKVMAAVSTQLRSLSLGPTFRERALLCFLDQLEDEDVQTRVAGCLALGCIKAPEGIEPLVYLCQTDTEAVREAARQSLQQCGEEGQSAHRRLEESLDALPRIFGPGSMASTAF [FAM65A]”: in the data set on HeLa Kyoto [1], the “solubility in G1/S (log2)” value was found to be 0.0594. Moreover, the melting temperature in the data set on HeLa Kyoto [2] (cell cycle stage: G1/S) was found to be 50.1 °C; in the data set with HeLa Kyoto [2] (cell cycle stage: mitosis) it was 49.7 °C. For the same sequence, the “solubility change mitosis (log2)” value in the data set with HeLa Kyoto [3] is -0.096. The figures for the thermal stability score with HeLa Kyoto [4] (setting [5]) and with HeLa Kyoto [4] (cell cycle stage: mitosis) were 0.236 and 1.49, respectively.

For the sequence “MNAARTGYRVFSANSTAACTELAKRITERLGAELGKSVVYQETNGETRVEIKESVRGQDIFIIQTIPRDVNTAVMELLIMAYALKTACARNIIGVIPYFPYSKQSKMRKRGSIVCKLLASMLAKAGLTHIITMDLHQKEIQGFFSFPVDNLRASPFLLQYIQEEIPNYRNAVIVAKSPDAAKRAQSYAERLRLGLAVIHGEAQCTELDMDDGRHSPPMVKNATVHPGLELPLMMAKEKPPITVVGDVGGRIAIIVDDIIDDVESFVAAAEILKERGAYKIYVMATHGILSAEAPRLIEESSVDEVVVTNTVPHEVQKLQCPKIKTVDISLILSEAIRRIHNGESMAYLFRNITVDD [PRPSAP1]”, in the data set on HeLa Kyoto [1], the “solubility in G1/S (log2)” value was found to be 0.0529. For the same sequence, the melting temperature with HeLa Kyoto [2] (cell cycle stage: G1/S) came to 55.6 °C; with HeLa Kyoto [2] (cell cycle stage: mitosis), 54.6 °C. Moreover, the “solubility change mitosis (log2)” value with HeLa Kyoto [3] is -0.211. Moreover, the thermal stability score in the data set on HeLa Kyoto [4] (setting [5]) was -0.299; in the data set with HeLa Kyoto [4] (cell cycle stage: mitosis), -2.79.
